Results taken from patent US7446182 (University of Texas, dated 2008).

What was measured:
[1] = target: T1, Bacillus anthracis protective antigen (PA), 83 kDa polypeptide (Bacillus anthracis, UniProt P13423 30-764); assay: SPR
[2] = target: T1, Bacillus anthracis protective antigen …; assay: SPR, PA immobilized on CM5 chip

T1 sequence (P13423 30-764 limits assumed): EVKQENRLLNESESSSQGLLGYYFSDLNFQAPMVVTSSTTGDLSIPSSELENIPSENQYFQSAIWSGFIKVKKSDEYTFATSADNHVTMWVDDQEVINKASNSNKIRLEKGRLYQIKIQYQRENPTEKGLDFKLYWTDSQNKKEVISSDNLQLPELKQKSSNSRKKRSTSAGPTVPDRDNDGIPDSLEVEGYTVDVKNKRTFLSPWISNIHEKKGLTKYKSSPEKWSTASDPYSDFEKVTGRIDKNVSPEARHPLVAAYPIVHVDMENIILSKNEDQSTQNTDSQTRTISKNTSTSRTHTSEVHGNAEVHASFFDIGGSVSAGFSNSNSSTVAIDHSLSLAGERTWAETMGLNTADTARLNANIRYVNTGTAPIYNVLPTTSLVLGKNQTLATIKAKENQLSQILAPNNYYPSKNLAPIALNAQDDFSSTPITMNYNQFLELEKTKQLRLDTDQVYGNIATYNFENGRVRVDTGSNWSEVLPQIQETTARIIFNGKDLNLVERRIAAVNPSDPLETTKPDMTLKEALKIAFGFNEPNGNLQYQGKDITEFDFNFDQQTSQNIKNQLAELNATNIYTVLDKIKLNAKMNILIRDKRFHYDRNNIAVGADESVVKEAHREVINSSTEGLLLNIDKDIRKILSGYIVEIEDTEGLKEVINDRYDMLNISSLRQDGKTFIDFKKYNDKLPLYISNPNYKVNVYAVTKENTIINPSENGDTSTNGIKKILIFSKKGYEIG

B1: 1H scFv (scFv)
scFv: DIQMTQTTSSLSASLGDRVTISCRASQDIRNYLNWYQQKPDGTVKLLIYYTSRLLPGVPSRFSGSGSGTDYSLTISNQEQEDIGTYFCQQGNTLPWTGFFFTKLEIRRGGGGSGGGGSGGGGSGGGGSEVQLQQSGPELVKPGASVKISCKIDSGYAFSSSWMNWVKQRFGQGLEWIGRIYPGDGDTNYNGKFKGKATLTADKSSSTAYMQLSSLTSVDSAVYFCARSGLLRYAMDYWGQGTSVTVSS
Kd [1]: 0.25 nM | fold lower equilibrium dissociation constant than 14B7 [1]: 48 fold | Kd [2]: 0.24 nM | koff [2]: 0.00017 s⁻¹ | kon [2]: 720000 M⁻¹ s⁻¹
